Results reported in publication PMC12378399 (Metallomics : integrated biometal science, 2025).
Where two headings read alike, the source gives them in different places. Values belong to the molecule of their own block, whether it stands above or below them.

What was measured:
SufS (with SufE) = SufS (with SufE) (Escherichia coli, UniProt P77444); details: 50 mM MOPS pH 8.0, 150 mM NaCl, 2 mM TCEP, 500 μM L-cysteine, SufE 0.25-3 μM varied (not cysteine)
[1] = biological target: BODIPY-labeled SufE C51A/E107C (SufEDM) (E. coli) (UniProt P76194); experiment: fluorescence polarisation
[2] = biological target: SufBC2D (Escherichia coli) (UniProt P77522); experiment: surface plasmon resonance; details: cited from earlier work
SufS (Escherichia coli) [3] = biological target: SufS (Escherichia coli) (UniProt P77444); details: cited from earlier work
SufS (Escherichia coli) [4] = biological target: SufS (Escherichia coli) (UniProt P77444); details: cited from earlier work; remark: listed apart in the source
[5] = biological target: SufBC2D scaffold complex (His6-SufBCD) (E. coli) (UniProt P77522)
[6] = biological target: SufBC2D scaffold complex (His6-SufBCD) (E. coli) (UniProt P77522); experiment: steady-state enzyme inhibition

Chain of SufBC2D scaffold complex (His6-SufBCD) (E. coli) (P77522 whole entry, chain 1 of 3): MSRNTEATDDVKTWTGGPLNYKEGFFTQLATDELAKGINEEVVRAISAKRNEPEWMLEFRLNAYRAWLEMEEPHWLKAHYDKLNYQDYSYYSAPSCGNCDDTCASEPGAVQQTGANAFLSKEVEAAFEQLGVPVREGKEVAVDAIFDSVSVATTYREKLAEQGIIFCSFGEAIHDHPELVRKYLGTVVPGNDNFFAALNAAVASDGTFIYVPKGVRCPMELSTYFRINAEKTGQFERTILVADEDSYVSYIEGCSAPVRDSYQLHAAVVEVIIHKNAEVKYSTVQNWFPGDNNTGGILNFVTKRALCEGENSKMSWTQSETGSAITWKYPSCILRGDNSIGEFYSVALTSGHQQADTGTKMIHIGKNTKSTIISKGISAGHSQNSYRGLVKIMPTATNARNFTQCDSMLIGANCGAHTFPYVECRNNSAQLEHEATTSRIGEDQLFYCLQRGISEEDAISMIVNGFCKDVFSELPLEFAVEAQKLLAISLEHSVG
Chain of SufBC2D scaffold complex (His6-SufBCD) (E. coli) (P77499 whole entry, chain 2 of 3, further chain): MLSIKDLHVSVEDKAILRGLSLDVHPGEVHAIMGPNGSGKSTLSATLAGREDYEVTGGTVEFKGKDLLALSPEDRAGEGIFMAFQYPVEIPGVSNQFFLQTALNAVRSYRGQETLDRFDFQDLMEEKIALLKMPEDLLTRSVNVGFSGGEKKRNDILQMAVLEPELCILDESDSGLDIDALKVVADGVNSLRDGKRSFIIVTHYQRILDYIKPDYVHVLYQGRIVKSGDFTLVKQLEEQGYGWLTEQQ
Chain of SufBC2D scaffold complex (His6-SufBCD) (E. coli) (P77689 whole entry, chain 3 of 3, further chain): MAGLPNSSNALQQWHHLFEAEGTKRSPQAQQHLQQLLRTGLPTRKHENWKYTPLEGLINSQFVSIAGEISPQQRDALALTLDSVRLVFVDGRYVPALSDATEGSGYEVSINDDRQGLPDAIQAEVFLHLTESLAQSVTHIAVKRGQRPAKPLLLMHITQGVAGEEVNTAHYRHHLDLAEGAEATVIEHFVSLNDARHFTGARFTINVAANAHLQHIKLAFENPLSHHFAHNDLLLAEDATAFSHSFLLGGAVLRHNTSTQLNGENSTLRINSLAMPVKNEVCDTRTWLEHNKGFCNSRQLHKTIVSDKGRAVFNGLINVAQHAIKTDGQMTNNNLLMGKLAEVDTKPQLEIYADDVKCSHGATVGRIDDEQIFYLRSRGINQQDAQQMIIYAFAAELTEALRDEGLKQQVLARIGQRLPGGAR
Chain of SufS (Escherichia coli) (P77444 whole entry): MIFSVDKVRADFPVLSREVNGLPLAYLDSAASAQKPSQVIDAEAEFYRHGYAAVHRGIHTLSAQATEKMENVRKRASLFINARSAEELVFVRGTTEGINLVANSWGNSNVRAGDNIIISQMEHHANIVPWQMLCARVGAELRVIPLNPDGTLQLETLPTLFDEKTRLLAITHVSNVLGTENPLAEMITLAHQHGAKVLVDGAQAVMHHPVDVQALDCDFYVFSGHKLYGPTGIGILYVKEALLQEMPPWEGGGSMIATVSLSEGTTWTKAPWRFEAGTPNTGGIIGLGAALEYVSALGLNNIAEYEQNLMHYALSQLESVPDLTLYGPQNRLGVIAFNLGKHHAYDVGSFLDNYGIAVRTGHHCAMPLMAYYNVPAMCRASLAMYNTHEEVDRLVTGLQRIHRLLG
Chain of SufS (with SufE) (P77444 whole entry, one chain of several): as the sequence (P77444 whole entry) above
Chain of SufBC2D (Escherichia coli) (P77522 whole entry, chain 1 of 3): as the sequence (P77522 whole entry, chain 1 of 3) above
Chain of SufBC2D (Escherichia coli) (P77499 whole entry, chain 2 of 3, further chain): as the sequence (P77499 whole entry, chain 2 of 3, further chain) above
Chain of SufBC2D (Escherichia coli) (P77689 whole entry, chain 3 of 3, further chain): as the sequence (P77689 whole entry, chain 3 of 3, further chain) above

Molecule: N[C@@H](CS)C(=O)O [L-cysteine]
NDA-alanine fluorescence detection of L-alanine produced (SufS (with SufE)): Cysteine desulfurase activity of SufS was measured by quantifying the amount of L-alanine produced

Kd [1]: 1600 nM
Molecule: SufBC2D scaffold complex (His6-SufBCD) (from UniProt P77522 1-495; P77499 1-248; P77689 1-423)

Molecule: SufE (from UniProt P76194)
Kd [2]: 2800 nM
Kd (SufS (Escherichia coli) [3]): 500 nM
Kd (SufS (Escherichia coli) [4]): 5000 nM

IC50 of inhibition of SufBC2D ATPase activity in the presence of 500 μM Mg2+-ATP [5]: 1000 nM
Ki [6]: 1800 nM
B1: SufE (wildtype) (natural protein)
chain: MALLPDKEKLLRNFLRCANWEEKYLYIIELGQRLPELRDEDRSPQNSIQGCQSQVWIVMRQNAQGIIELQGDSDAAIVKGLIAVVFILYDQMTPQDIVNFDVRPWFEKMALTQHLTPSRSQGLEAMIRAIRAKAAALS

Ki [6]: 2500 nM
B2: Carbamidomethylated SufE (SufE-alk) (natural protein)
chain: MALLPDKEKLLRNFLRCANWEEKYLYIIELGQRLPELRDEDRSPQNSIQGCQSQVWIVMRQNAQGIIELQGDSDAAIVKGLIAVVFILYDQMTPQDIVNFDVRPWFEKMALTQHLTPSRSQGLEAMIRAIRAKAAALS
modifications: C51 alkylated (carbamidomethylated with iodoacetamide)
